Results from US20250026842A1.

What was measured:
[1] = target: human 4-1BB on the surface of HEK293-Hu4-1BB cells (human) (UniProt Q07011); test: cell-based or functional assay
[2] = target: human 4-1BB on the surface of HEK293-Hu4-1BB cells (human) (UniProt Q07011); test: FACS on HEK293 cells highly expressing human 4-1BB

human 4-1BB on the surface of HEK293-Hu4-1BB cells (human), sequence (Q07011 24-255): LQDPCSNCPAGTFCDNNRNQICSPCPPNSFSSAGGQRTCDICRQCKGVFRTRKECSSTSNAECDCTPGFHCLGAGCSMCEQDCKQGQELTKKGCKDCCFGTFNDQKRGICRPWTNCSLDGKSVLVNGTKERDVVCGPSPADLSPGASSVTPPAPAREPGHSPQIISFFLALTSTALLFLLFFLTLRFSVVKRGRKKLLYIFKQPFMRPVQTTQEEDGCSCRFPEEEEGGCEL

Emax, 4-1BB/NF-κB luciferase reporter, FcγRIIb cross-linking (relative to antibody-free group) [1]: 1.12
Emax, 4-1BB/NF-κB luciferase reporter, no FcγRIIb cross-linking (relative to antibody-free group) [1]: 1.1
Maximal fluorescence value [2]: 67
Substance: isotype IgG1 antibody
